What was measured:
EcRecG-WD QPW = molecular target: T1, EcRecG-WD QPW (Escherichia coli MG1655, UniProt P24230 59-135, F99Q;S100P;A101W); experiment: EMSA; 100 nM HJ; significantly increased vs EcRecG-WD WT; 5 mM EDTA; 50 mM Tris-HCl pH 8.0, 5 mM EDTA, 1 mM DTT, 100 ug/ml BSA, 6% glycerol, on ice 15 min; 100 nM HJ; 6% polyacrylamide gel at room temperature; settings: protein: recombinant; tags: MBP (N-terminal fusion, pMAL-c2x); four-way junction of 4 strands, 1 copy each
T1 sequence: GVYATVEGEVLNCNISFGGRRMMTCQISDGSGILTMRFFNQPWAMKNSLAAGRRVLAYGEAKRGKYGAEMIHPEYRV

DrRecG-WD WT = molecular target: T2, DrRecG-WD WT (Deinococcus radiodurans R1, UniProt Q9RT50 158-235); experiment: EMSA; 100 nM HJ; near saturation at 160 nM protein; 5 mM EDTA; 50 mM Tris-HCl pH 8.0, 5 mM EDTA, 1 mM DTT, 100 ug/ml BSA, 6% glycerol, on ice 15 min; 100 nM HJ; 6% polyacrylamide gel at room temperature; settings: protein: recombinant; tags: MBP (N-terminal fusion, pMAL-c2x); four-way junction of 4 strands, 1 copy each
T2 sequence: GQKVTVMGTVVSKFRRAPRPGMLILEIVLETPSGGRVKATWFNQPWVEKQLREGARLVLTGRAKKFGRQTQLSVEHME

B1: Holliday junction (oligos 1-4) (structured_DNA)
DNA 1: GTCGGATCCTCTAGACAGCTCCATGATCACTGGCACTGGTAGAATTCGGC
DNA 2: CAACGTCATAGACGATTACATTGCTACATGGAGCTGTCTAGAGGATCCGA
DNA 3: TGCCGAATTCTACCAGTGCCAGTGATGGACATCTTTGCCACGTTGACCC
DNA 4: TGGGTCAACGTGGGCAAGATGTCCTAGCAATGTAATCGTCTATGACGT
B1: binds (EcRecG-WD QPW); binds (DrRecG-WD WT).
